These results are taken from patent US20100028924.

The target of the data set is rHDL-apoA-I (reconstituted discoidal HDL particles carrying apolipoprotein A-I).

B1: human PON1-192R (protein)
chain: AKLIALTLLGMGLALFRNHQSSYQTRLNALREVQPVELPNCNLVKGIETGSEDLEILPNGLAFISSGLKYPGIKSFNPNSPGKILLMDLNEEDPTVLELGITGSKFDVSSFNPHGISTFTDEDNAMYLLVVNHPDAKSTVELFKFQEEEKSLLHLKTIRHKLLPNLNDIVAVGPEHFYGTNDHYFLDPYLRSWEMYLGLAWSYVVYYSPSEVRVVAEGFDFANGINISPDGKYVYIAELLAHKIHVYEKHANWTLTPLKSLDFNTLVDNISVDPETGDLWVGCHPNGMKIFFYDSENPPASEVLRIQNILTEEPKVTQVYAENGTVLQGSTVASVYKGKLLIGTVFHKALYCEL
Consider B1, for which the A2 (%), amplitude of the slow phase of inactivation on apoA-I rHDL turned out to be 87%; the “activation level of lactonase activity by rHDL-apoA-I, against 192Q” value is “about 2-fold higher activation level than 192Q”; the “stated: enzymatic activity stimulated by a 50-fold molar excess of rHDl-apoA-I (% Activity Stimulation, delipidated enzyme as reference), six substrates [panel B]” value was “dark bars: about 650 to 750 % with γ-dodecanoic lactone, δ-valerolactone and δ-nonanoic lactone, about 450 % with TBBL, about 200 to 250 % with phenyl acetate and paraoxon; higher than the 192Q bar with every lactone”.

B2: human PON1-192Q (protein)
chain: AKLIALTLLGMGLALFRNHQSSYQTRLNALREVQPVELPNCNLVKGIETGSEDLEILPNGLAFISSGLKYPGIKSFNPNSPGKILLMDLNEEDPTVLELGITGSKFDVSSFNPHGISTFTDEDNAMYLLVVNHPDAKSTVELFKFQEEEKSLLHLKTIRHKLLPNLNDIVAVGPEHFYGTNDHYFLDPYLQSWEMYLGLAWSYVVYYSPSEVRVVAEGFDFANGINISPDGKYVYIAELLAHKIHVYEKHANWTLTPLKSLDFNTLVDNISVDPETGDLWVGCHPNGMKIFFYDSENPPASEVLRIQNILTEEPKVTQVYAENGTVLQGSTVASVYKGKLLIGTVFHKALYCEL
In the case of B2, the A2 (%), amplitude of the slow phase of inactivation on apoA-I rHDL stood at 72%; the “stated: enzymatic activity stimulated by a 50-fold molar excess of rHDl-apoA-I (% Activity Stimulation, delipidated enzyme as reference), six substrates [panel B]” value is “white bars: about 280 % with γ-dodecanoic lactone, about 420 to 440 % with δ-valerolactone and δ-nonanoic lactone, about 250 % with TBBL, about 170 to 210 % with phenyl acetate and paraoxon; lower than the 192R bar with every lactone, close to it with phenyl acetate and paraoxon”.

B3: wt rePON1-192K (protein)
chain: MAKLTALTLLGLGLALFDGQKSSFQTRFNVHREVTPVELPNCNLVKGVDNGSEDLEILPNGLAFISSGLKYPGIMSFDPDKSGKILLMDLNEEDPVVLELGITGNTLDISSFNPHGISTFTDEDNTVYLLVVNHPDSSSTVEVFKFQEEEKSLLHLKTIRHKLLPSVNDIVAVGPEHFYATNDHYFADPYLKSWEMHLGLAWSFVTYYSPNDVRVVAEGFDFANGINISPDGKYVYIAELLAHKIHVYEKHANWTLTPLKSLDFDTLVDNISVDPVTGDLWVGCHPNGMRIFYYDPKNPPGSEVLRIQDILSEEPKVTVVYAENGTVLQGSTVAAVYKGKLLIGTVFHKALYCEL
For the protein B3, the A2 (%), amplitude of the slow phase of inactivation on apoA-I rHDL was 100%; the Kapp (µM), substrate TBBL came out at 0.5 µM; the Kapp (µM), substrate paraoxon was determined as 0.6 µM; the Kapp (µM), substrate phenyl acetate worked out at 0.5 µM. Moreover, the Kapp (µM), substrate γ-dodecanoic lactone stood at 1.2 µM; the Kapp (µM), substrate δ-nonanoic lactone came out at 1.3 µM; the Kapp (µM), substrate δ-valerolactone was 1.3 µM; the Vmax (%), enzymatic activation by apoA-I rHDL, substrate TBBL came to 791%. Moreover, the Vmax (%), enzymatic activation by apoA-I rHDL, substrate paraoxon amounted to 222%; the Vmax (%), enzymatic activation by apoA-I rHDL, substrate phenyl acetate is 425%; the Vmax (%), enzymatic activation by apoA-I rHDL, substrate γ-dodecanoic lactone worked out at 1830%; the Vmax (%), enzymatic activation by apoA-I rHDL, substrate δ-nonanoic lactone turned out to be 1580%. Also, the Vmax (%), enzymatic activation by apoA-I rHDL, substrate δ-valerolactone amounted to 1720% and the “fold higher fraction of HDL-bound protein than the Q isozyme (from inactivation/stability measurements; reference rePON1-192Q)” value is “a 3-fold higher fraction of HDL-bound protein as revealed from the stability measurements”.

B4: rePON1-192R (protein)
chain: MAKLTALTLLGLGLALFDGQKSSFQTRFNVHREVTPVELPNCNLVKGVDNGSEDLEILPNGLAFISSGLKYPGIMSFDPDKSGKILLMDLNEEDPVVLELGITGNTLDISSFNPHGISTFTDEDNTVYLLVVNHPDSSSTVEVFKFQEEEKSLLHLKTIRHKLLPSVNDIVAVGPEHFYATNDHYFADPYLRSWEMHLGLAWSFVTYYSPNDVRVVAEGFDFANGINISPDGKYVYIAELLAHKIHVYEKHANWTLTPLKSLDFDTLVDNISVDPVTGDLWVGCHPNGMRIFYYDPKNPPGSEVLRIQDILSEEPKVTVVYAENGTVLQGSTVAAVYKGKLLIGTVFHKALYCEL
B4: the A2 (%), amplitude of the slow phase of inactivation on apoA-I rHDL was 90%; the Kapp (µM), substrate TBBL was found to be 0.4 µM; the Kapp (µM), substrate paraoxon was found to be 0.8 µM; the Kapp (µM), substrate phenyl acetate was 0.8 µM. Further, the Kapp (µM), substrate γ-dodecanoic lactone amounted to 0.9 µM; the Kapp (µM), substrate δ-nonanoic lactone worked out at 1.5 µM; the Kapp (µM), substrate δ-valerolactone is 1.1 µM; the Vmax (%), enzymatic activation by apoA-I rHDL, substrate TBBL is 579%. The Vmax (%), enzymatic activation by apoA-I rHDL, substrate paraoxon is 200%; the Vmax (%), enzymatic activation by apoA-I rHDL, substrate phenyl acetate was 336%; the Vmax (%), enzymatic activation by apoA-I rHDL, substrate γ-dodecanoic lactone was found to be 1260%; the Vmax (%), enzymatic activation by apoA-I rHDL, substrate δ-nonanoic lactone amounted to 1350%. For the same protein, the Vmax (%), enzymatic activation by apoA-I rHDL, substrate δ-valerolactone was determined as 1400%; the “fold higher fraction of HDL-bound protein than the Q isozyme (from inactivation/stability measurements; reference rePON1-192Q)” value is on record as “a 3-fold higher fraction of HDL-bound protein as revealed from the stability measurements”; the “reduction of Vmax of stimulation by rHDL compared to wt rePON1-192K” value is reported as 10-30% reduction of Vmax.

B5: rePON1-192Q (protein)
chain: MAKLTALTLLGLGLALFDGQKSSFQTRFNVHREVTPVELPNCNLVKGVDNGSEDLEILPNGLAFISSGLKYPGIMSFDPDKSGKILLMDLNEEDPVVLELGITGNTLDISSFNPHGISTFTDEDNTVYLLVVNHPDSSSTVEVFKFQEEEKSLLHLKTIRHKLLPSVNDIVAVGPEHFYATNDHYFADPYLQSWEMHLGLAWSFVTYYSPNDVRVVAEGFDFANGINISPDGKYVYIAELLAHKIHVYEKHANWTLTPLKSLDFDTLVDNISVDPVTGDLWVGCHPNGMRIFYYDPKNPPGSEVLRIQDILSEEPKVTVVYAENGTVLQGSTVAAVYKGKLLIGTVFHKALYCEL
The protein B5 registered an A2 (%), amplitude of the slow phase of inactivation on apoA-I rHDL of 70%; a Kapp (µM), substrate TBBL of 0.5 µM; a Kapp (µM), substrate paraoxon of 0.8 µM; a Kapp (µM), substrate phenyl acetate of 0.8 µM. Further, the Kapp (µM), substrate γ-dodecanoic lactone worked out at 0.6 µM; the Kapp (µM), substrate δ-nonanoic lactone came to 0.6 µM; the Kapp (µM), substrate δ-valerolactone was found to be 1.1 µM; the Vmax (%), enzymatic activation by apoA-I rHDL, substrate TBBL came to 340%. For the same protein, the Vmax (%), enzymatic activation by apoA-I rHDL, substrate paraoxon is 128%; the Vmax (%), enzymatic activation by apoA-I rHDL, substrate phenyl acetate was found to be 165%; the Vmax (%), enzymatic activation by apoA-I rHDL, substrate γ-dodecanoic lactone stood at 382%; the Vmax (%), enzymatic activation by apoA-I rHDL, substrate δ-nonanoic lactone amounted to 778%. In addition, the Vmax (%), enzymatic activation by apoA-I rHDL, substrate δ-valerolactone turned out to be 481% and the “reduction of Vmax of stimulation by rHDL compared to wt rePON1-192K” value is given as 50-80% reduction of Vmax compared to wt rePON1-192K.
